Literature values as cited in publication PMC6858787.

Molecular target: CheY (Thermotoga maritima) (UniProt Q56312)
UniProt Q56312, sequence (Q56312 whole entry): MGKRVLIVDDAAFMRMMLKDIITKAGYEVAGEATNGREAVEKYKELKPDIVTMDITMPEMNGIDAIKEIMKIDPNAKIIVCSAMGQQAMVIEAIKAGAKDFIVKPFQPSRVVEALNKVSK

Kd: 0.2 µM
Substance: CheA CheY binding domain (from UniProt Q56310)
